Molecular target: the molecule itself
Assay: sedimentation velocity centrifugation on glycerol gradients

B1: cytotactin (intact, unreduced hexabrachion) (natural protein)
chain: ETGLNVTLPEDNQPVVFNHVYNIKLPVGSLCSVDLDTASGDADLKAEIEPVKNYEEHTVNEGNQIVFTHRINIPRRACGCAAAPDIKDLLSRLEELEGLVSSLREQCASGAGCCPNSQTAEGRLDTAPYCSGHGNYSTEICGCVCEPGWKGPNCSEPACPRNCLNRGLCVRGKCICEEGFTGEDCSQAACPSDCNDQGKCVDGVCVCFEGYTGPDCGEELCPHGCGIHGRCVGGRCVCHEGFTGEDCNEPLCPNNCHNRGRCVDNECVCDEGYTGEDCGELICPNDCFDRGRCINGTCFCEEGYTGEDCGELTCPNNCNGNGRCENGLCVCHEGFVGDDCSQKRCPKDCNNRGHCVDGRCVCHEGYLGEDCGELRCPNDCHNRGRCINGQCVCDEGFIGEDCGELRCPNDCHNRGRCVNGQCECHEGFIGEDCGELRCPNDCNSHGRCVNGQCVCDEGYTGEDCGELRCPNDCHNRGRCVEGRCVCDNGFMGEDCGELSCPNDCHQHGRCVDGRCVCHEGFTGEDCRERSCPNDCNNVGRCVEGRCVCEEGYMGIDCSDVSPPTELTVTNVTDKTVNLEWKHENLVNEYLVTYVPTSSGGLDLQFTVPGNQTSATIHELEPGVEYFIRVFAILKNKKSIPVSARVATYLPAPEGLKFKSVRETSVQVEWDPLSISFDGWELVFRNMQKKDDNGDITSSLKRPETSYMQPGLAPGQQYNVSLHIVKNNTRGPGLSRVITTKLDAPSQIEAKDVTDTTALITWSKPLAEIEGIELTYGPKDVPGDRTTIDLSEDENQYSIGNLRPHTEYEVTLISRRGDMESDPAKEVFVTDLDAPRNLKRVSQTDNSITLEWKNSHANIDNYRIKFAPISGGDHTELTVPKGNQATTRATLTGLRPGTEYGIGVTAVRQDRESAPATINAGTDLDNPKDLEVSDPTETTLSLRWRRPVAKFDRYRLTYVSPSGKKNEMEIPVDSTSFILRGLDAGTEYTISLVAEKGRHKSKPTTIKGSTEEEPELGNLSVSETGWDGFQLTWTAADGAYENFVIQVQQSDNPEETWNITVPGGQHSVNVTGLKANTPYNVTLYGVIRGYRTKPLYVETTTGAHPEVGELTVSDITPESFNLSWTTTNGDFDAFTIEIIDSNRLLEPMEFNISGNSRTAHISGLSPSTDFIVYLYGISHGFRTQAISAAATTEAEPEVDNLLVSDATPDGFRLSWTADDGVFDSFVLKIRDTKRKSDPLELIVPGHERTHDITGLKEGTEYEIELYGVSSGRRSQPINSVATTVVGSPKGISFSDITENSATVSWTPPRSRVDSYRVSYVPITGGTPNVVTVDGSKTRTKLVKLVPGVDYNVNIISVKGFEESEPISGILKTALDSPSGLVVMNITDSEALATWQPAIAAVDNYIVSYSSEDEPEVTQMVSGNTVEYDLNGLRPATEYTLRVHAVKDAQKSETLSTQFTTGLDAPKDLSATEVQSETAVITWRPPRAPVTDYLLTYESIDGRVKEVILDPETTSYTLTELSPSTQYTVKLQALSRSMRSKMIQTVFTTTGLLYPYPKDCSQALLNGEVTSGLYTIYLNGDRTQPLQVFCDMAEDGGGWIVFLRRQNGKEDFYRNWKNYVAGFGDPKDEFWIGLENLHKISSQGQYELRVDLRDRGETAYAVYDKFSVGDAKTRYRLRVDGYSGTAGDSMTYHNGRSFSTFDKDNDSAITNCALSYKGAFWYKNCHRVNLMGRYGDNNHSQGVNWFHWKGHEYSIQFAEMKLRPSSFRNLEGRRKRA
modifications: interchain disulfide bonds; HNK-1 carbohydrate epitope; radioiodinated (chloramine T, 125I) in the ultracentrifugation
stoichiometry N: ~6
